According to PMC5058624:

Biological target: recombinant LukG monomer (TCH1516) (Staphylococcus aureus strain TCH1516 (USA300 CA-MRSA))
Assay: BLI

recombinant LukG monomer (TCH1516) (Staphylococcus aureus strain TCH1516 (USA300 CA-MRSA)), sequence (P21224 30-338 limits assumed): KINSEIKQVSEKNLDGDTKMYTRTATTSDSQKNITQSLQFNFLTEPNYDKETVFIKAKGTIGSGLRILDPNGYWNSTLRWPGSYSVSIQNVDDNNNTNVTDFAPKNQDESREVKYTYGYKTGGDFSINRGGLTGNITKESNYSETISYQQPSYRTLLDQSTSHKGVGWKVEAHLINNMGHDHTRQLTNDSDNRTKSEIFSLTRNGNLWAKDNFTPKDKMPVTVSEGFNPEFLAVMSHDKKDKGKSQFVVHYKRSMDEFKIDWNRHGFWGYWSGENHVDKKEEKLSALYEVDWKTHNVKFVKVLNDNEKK

recombinant LukH monomer (TCH1516) (natural protein)
stoichiometry N (molar ratio of the 2 monomers): 1
